These results are taken from PMC11116822, “Nuclear factor Y-A3b binds to the SINGLE FLOWER TRUSS promoter and regulates flowering time in tomato”.

Data set [1] deals with T1, SlNF-YA3b (MBP-6His fusion) (Solanum lycopersicum (tomato) cv. AC).
T1 chain: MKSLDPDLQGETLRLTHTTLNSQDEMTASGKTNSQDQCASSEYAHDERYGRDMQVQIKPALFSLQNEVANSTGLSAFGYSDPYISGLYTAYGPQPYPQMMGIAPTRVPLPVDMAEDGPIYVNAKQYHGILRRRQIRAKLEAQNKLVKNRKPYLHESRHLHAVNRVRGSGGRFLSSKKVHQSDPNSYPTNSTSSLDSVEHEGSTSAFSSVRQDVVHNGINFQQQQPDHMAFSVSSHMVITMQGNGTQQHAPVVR
Description: competition; 10- and 30-fold excess vs FAM box 4; EMSA on non-denaturing gels, FAM probes; buffer, salt, pH and temperature not stated. The following applies: protein: recombinant; tags: MBP; 6xHis; blunt. (A gel shift assay detects complexes by their altered migration in electrophoresis.)

The target of data set [2] is T1, SlNF-YA3b (MBP-6His fusion). Description: EMSA; EMSA on non-denaturing gels, FAM probes; buffer, salt, pH and temperature not stated. The following applies: protein: recombinant; tags: MBP; 6xHis; label: FAM on forward strand (probe); blunt.
For data set [3] the target is unchanged. Kind of data set: competition; 10- and 30-fold excess vs FAM box 1; EMSA on non-denaturing gels, FAM probes; buffer, salt, pH and temperature not stated. The following applies: protein: recombinant; tags: MBP; 6xHis; blunt.
For data set [4] the target is unchanged. Description: competition; 10- and 30-fold excess vs FAM box 3; EMSA on non-denaturing gels, FAM probes; buffer, salt, pH and temperature not stated. The following applies: protein: recombinant; tags: MBP; 6xHis; blunt.
Data set [5] has the same target. Description: competition; 10- and 30-fold excess vs FAM box 6; EMSA on non-denaturing gels, FAM probes; buffer, salt, pH and temperature not stated. The following applies: protein: recombinant; tags: MBP; 6xHis; blunt.
For data set [6] the target is unchanged. Description: competition; 10- and 30-fold excess vs FAM box 5; EMSA on non-denaturing gels, FAM probes; buffer, salt, pH and temperature not stated. The following applies: protein: recombinant; tags: MBP; 6xHis; blunt.
Data set [7] has the same target. Kind of data set: competition; 10- and 30-fold excess vs FAM box 2; EMSA on non-denaturing gels, FAM probes; buffer, salt, pH and temperature not stated. The following applies: protein: recombinant; tags: MBP; 6xHis; blunt.
The target is the same in data set [8]. Description: competition; 10- and 30-fold excess vs FAM box 7; EMSA on non-denaturing gels, FAM probes; buffer, salt, pH and temperature not stated. The following applies: protein: recombinant; tags: MBP; 6xHis; blunt.

Numbering of substitutions follows the chain as printed.

B1: SFT-box4-m (dsDNA)
DNA 1: TTAAATTATGTTTTCTTGGGGGGGGTTTCATTCCTTATTTA
DNA 2: TAAATAAGGAATGAAACCCCCCCCAAGAAAACATAATTTAA
Turning to B1, in data set [1], the binding result is “no binding”.

B2: SFT-box4 (dsDNA)
DNA 1: B1 DNA 1 with G19A, G20T, G21T
DNA 2: B1 DNA 2 with C21A, C22A, C23T
On to B2, for which the binding result in data set [2] is given as “binds”.

B3: SFT-box1 (dsDNA)
DNA 1: GAATCAAGACACGATGATATTGGGACGCTTTGGGGTGTAT
DNA 2: ATACACCCCAAAGCGTCCCAATATCATCGTGTCTTGATTC
With B3, the binding result in data set [2] is “binds”.

B4: SFT-box1-m (dsDNA)
DNA 1: B3 DNA 1 with A19T, G22T, G23T
DNA 2: B3 DNA 2 with C18A, C19A, T22A
Turning to B4, the binding result in data set [3] was “no binding”.

B5: SFT-box7 (dsDNA)
DNA 1: AGTTAGATCAGGCCGGCCCAATAGACCTAATCCATAGTG
DNA 2: CACTATGGATTAGGTCTATTGGGCCGGCCTGATCTAACT
For the molecule B5, the binding result in data set [2] is given as “binds”.

B6: SFT-box3 (dsDNA)
DNA 1: GTTAGATTGAAGTTAGTAATTGGTTATCCCACCGATGGATT
DNA 2: AATCCATCGGTGGGATAACCAATTACTAACTTCAATCTAAC
On to B6, for which the binding result in data set [2] is recorded as “binds”.

B7: SFT-box3-m (dsDNA)
DNA 1: B6 DNA 1 with A19T, G22T, G23T
DNA 2: B6 DNA 2 with C19A, C20A, T23A
In the case of B7, in data set [4], the binding result was “no binding”.

B8: SFT-box6-m (dsDNA)
DNA 1: CCCTTCACCTTAGCATCAAAAAATAGGATTTACTACGAG
DNA 2: CTCGTAGTAAATCCTATTTTTTGATGCTAAGGTGAAGGG
As to B8, in data set [5], the binding result was “no binding”.

B9: SFT-box6 (dsDNA)
DNA 1: B8 DNA 1 with A19C, A20C, A23T
DNA 2: B8 DNA 2 with T17A, T20G, T21G
On to B9, for which the binding result in data set [2] was “binds”.

B10: SFT-box5-m (dsDNA)
DNA 1: ATGTTTTATCATAAAAATAAAAAATGTTTTTAATATTAATC
DNA 2: GATTAATATTAAAAACATTTTTTATTTTTATGATAAAACAT
Take B10: the binding result in data set [6] is “no binding”.

B11: SFT-box5 (dsDNA)
DNA 1: B10 DNA 1 with A20T, A21T, A22G, A23G
DNA 2: B10 DNA 2 with T19C, T20C, T21A, T22A
Turning to B11, the binding result in data set [2] is “binds”.

B12: SFT-box2 (dsDNA)
DNA 1: TAGGGGTAAGGGTAAAATATTGGAAAAATCATTTAAATAT
DNA 2: ATATTTAAATGATTTTTCCAATATTTTACCCTTACCCCTA
With B12, the binding result in data set [2] is listed as “binds”.

B13: SFT-box2-m (dsDNA)
DNA 1: B12 DNA 1 with T20A, T21A, G22A, G23A
DNA 2: B12 DNA 2 with C18T, C19T, A20T, A21T
Regarding B13, the binding result in data set [7] is “no binding”.

B14: SFT-box7-m (dsDNA)
DNA 1: AGTTAGATCAGGCCGGCGGGGGAGACCTAATCCATAGTG
DNA 2: CACTATGGATTAGGTCTCCCCCGCCGGCCTGATCTAACT
For the molecule B14, the binding result in data set [8] is recorded as “no binding”.
